Results reported in US20150050278A1 (US Dept. of Health and Human Services, published 2015).
Substitutions are numbered along the chain they refer to.

Legend:
[1] = molecular target: T1, human neonatal Fc receptor (FcRn), soluble (human, UniProt P55899 24-297; P61769 21-119, limits assumed); experiment: SPR (BIAcore X100), human FcRn immobilised on CM5 chip, pH 6.0; SPR (BIAcore X100), FcRn on CM5 chip, pH 6.0
T1 construct: also called human FcRn; human single-chain soluble FcRn
Protocol: The interaction of monomeric Fc with immobilized FcRn was monitored by SPR detection using a BIAcore X100 instrument (GE Healthcare). Purified human FcRn was diluted in 10 mM Na-acetate buffer, pH 5.0, and immobilized on a CM5 biosensor chip using amine coupling kit. The running buffer was PBS with 0.005% Tween 20 for testing binding at pH 7.4, or PBS pH 6.0 with 0.005% Tween 20 for binding at pH 6.0. […] After 10 min of dissociation, the chip was regenerated with pH 8.0 buffer (100 mM Tris, pH 8.0, 50 mM NaCl).
Human FcRn was immobilized on a CM5 bio sensor chip followed by analysis of the interaction using BIAcore X100. The binding was performed under pH 6.0 and pH 7.4, respectively, and the chip was regenerated with pH 8.0 buffer.

[2] = molecular target: T1, human neonatal Fc receptor (FcRn), …; experiment: ELISA on coated human FcRn at pH 6.0, OD405
Protocol: Antigens were coating on ELISA plate wells at 50 ng per well in PBS overnight at 4° C., blocked with protein-free blocking buffer for 1 h at 37° C. Threefold serially diluted protein was added and incubated at 37° C. for 2 h. The plates were washed with PBST, and HRP-conjugated anti-Fc antibody in PBS was incubated with wells for 1 h at 37° C. After extensive washes with PBST, the binding was detected with the addition of ABTS substrate, and signals were read at 405 nm. For FcRn binding test at pH 6.0, all proteins were prepared in PBS with pH adjusted to 6.0 by HCl, and PBST with pH 6.0 was used for washing the wells.

[3] = molecular target: T1, human neonatal Fc receptor (FcRn), …; experiment: SPR (BIAcore), human FcRn immobilised, pH 6.0; concentrations not given
[4] = molecular target: T1, human neonatal Fc receptor (FcRn), …; experiment: SPR, human FcRn immobilised, pH 6.0; pH 6.0
[5] = molecular target: T1, human neonatal Fc receptor (FcRn), …; experiment: SPR (BIAcore), human FcRn immobilised, pH 6.0; SPR (BIAcore), FcRn on the chip, pH 6.0
Protocol: The interaction of monomeric Fc with immobilized FcRn was monitored by SPR detection using a BIAcore X100 instrument (GE Healthcare). Purified human FcRn was diluted in 10 mM Na-acetate buffer, pH 5.0, and immobilized on a CM5 biosensor chip using amine coupling kit. The running buffer was PBS with 0.005% Tween 20 for testing binding at pH 7.4, or PBS pH 6.0 with 0.005% Tween 20 for binding at pH 6.0. […] After 10 min of dissociation, the chip was regenerated with pH 8.0 buffer (100 mM Tris, pH 8.0, 50 mM NaCl). Another test with a protein concentration of 500 nM was repeated to monitor the regeneration efficiency.
It was determined whether mCH3 could bind FcRn in a pH-dependent manner. Surface plasmon resonance (SPR) binding was performed using a BIAcore instrument with human FcRn immobilized on the chip, as described previously. The measurements were carried out under pH 6.0 or pH 7.4, and the chips were regenerated after binding by injection of a pH 8.0 buffer.

T1 sequence (P55899 24-297 limits assumed, chain 1 of 2): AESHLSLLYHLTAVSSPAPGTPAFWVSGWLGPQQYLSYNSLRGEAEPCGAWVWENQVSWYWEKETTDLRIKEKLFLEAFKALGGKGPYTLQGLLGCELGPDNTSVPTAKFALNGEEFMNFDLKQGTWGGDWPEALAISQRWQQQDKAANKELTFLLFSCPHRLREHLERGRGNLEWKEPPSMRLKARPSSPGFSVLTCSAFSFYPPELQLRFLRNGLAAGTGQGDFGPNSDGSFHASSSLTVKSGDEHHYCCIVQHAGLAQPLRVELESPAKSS
T1 sequence (P61769 21-119 limits assumed, chain 2 of 2): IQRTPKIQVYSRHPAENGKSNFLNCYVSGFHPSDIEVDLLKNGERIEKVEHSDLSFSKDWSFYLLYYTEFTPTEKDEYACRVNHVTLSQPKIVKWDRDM

B1: mFc.1 (designed binder)
chain: APELLGGPSVFLFPPKPKDTLMISRTPEVTCVVVDVSHEDPEVKFNWYVDGVEVHNAKTKPREEQYNSTYRVVSVLTVLHQDWLNGKEYKCKVSNKALPAPIEKTISKAKGQPREPQVYTYPPSRDELTKNQVSLYCAVKGFYPSDIAVEWESNGQPENNYKTTRPVLDSDGSFRLMSALTVDKSRWQQGNVFSCSVMHEALHNHYTQKSLSLSPGK
notes: also called monomeric Fc mFc.1
Kd [1]: 204 nM
EC50 (read off the curve) [2]: ~100 nM

B2: mFc.23 (designed binder)
chain: B1 chain with Y121S, Y136R, A138H, R165K, R175E, M177K
notes: also called monomeric Fc mFc.23
Kd [1]: 59 nM
EC50 (read off the curve) [2]: ~60 nM

B3: mFc.67 (designed binder)
chain: B1 chain with Y121K, Y136S, A138L, R165V, M177A, A179Y
notes: also called monomeric Fc mFc.67; mFc.67 monomer
Kd [1]: 111 nM

B4: wild-type CH3 domain (other)
chain: PREPQVYTLPPSRDELTKNQVSLTCLVKGFYPSDIAVEWESNGQPENNYKTTPPVLDSDGSFFLYSKLTVDKSRWQQGNVFSCSVMHEALHNHYTQKSLSLSPGK
notes: also called isolated CH3; Fc CH3 domain
binding result [3]: no binding

B5: mCH3 343C/431C mutant (mCH3cc) (designed binder)
chain: B4 chain with P1C, L9S, T24R, L26H, P53K, A89C
modifications: additional disulfide bond between Cys343 and Cys431
notes: also called engineered mCH3
Kd [4]: 1080 nM

B6: monomeric CH3 domain (mCH3) (designed binder)
chain: B4 chain with L9S, T24R, L26H, P53K
Kd [5]: 940 nM
